Reference: US7288251 (ABGENIX, dated 2007)

B1: monoclonal antibody 15.1.1 (antibody, human IgG2, kappa, V domains shown)
VH: QVQLQESGPGLVKPSETLSLTCTVSGGSIRSYYWTWIRQPPGKGLEWIGYIYYSGSTNYNPSLKSRVTISVDMSKNQFSLKLSSVTAADTAVYYCARKGDYGGNFNYFHQWGQGTLVTVSS
VL: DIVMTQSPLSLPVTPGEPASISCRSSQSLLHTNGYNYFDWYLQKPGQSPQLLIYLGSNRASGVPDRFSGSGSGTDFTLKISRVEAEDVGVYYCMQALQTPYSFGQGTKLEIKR
notes: Human IgG2 kappa from hybridoma; also called hybridoma 15.1.1 (LN 15851), ATCC PTA-3603
B2: monoclonal antibody 23.5.1 (antibody, human IgG2, kappa, V domains shown)
VH: QVQLVESGGGVVQPGRSLRLSCVASGFTFSNYGMHWVRQAPGKGLEWVAIISYDGSNKYYADSVKGRFTISRDNSKNTLYVQMNSLRAEDTAVYYCARRGHYGRDYYSYYGLDVWGQGTTVTVSS
VL: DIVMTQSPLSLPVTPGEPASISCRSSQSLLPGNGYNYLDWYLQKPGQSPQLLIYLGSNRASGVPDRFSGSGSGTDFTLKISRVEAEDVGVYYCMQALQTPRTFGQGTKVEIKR
notes: also called hybridoma 23.5.1 (LN 15855), ATCC PTA-4548
B3: monoclonal antibody 10.8.3 (antibody, human IgG2, kappa, V domains shown)
VH: QVQLQESGPGLVKPSETLSLTCTVSGGSISSYYWIWIRQPAGKGLEWIGRVYTSGSTNYNPSLKSRVTMSVDTSKNQFSLKLSSVTAADTAVYYCARDGLYRGYGMDVWGQGTTVTVSS
VL: DIQMTQSPSSVSASVGDRVTITCRASQPISSWLAWYQQKPGKAPKLLIYSASGLQSGVPSRFSGSGSGTDFTLTISSLQPEDFATYYCQQTDSFPLTFGGGTKVEIKR
notes: Human IgG2 kappa from hybridoma
B4: monoclonal antibody 3.1.1 (antibody, human IgG2, kappa, V domains shown)
VH: QVQLVESGGGVVQPGRSLRLSCAASGFTFSSYGMHWVRQAPGKGLEWVAVISKDGGNKYHADSVKGRFTISRDNSKNALYLQMNSLRVEDTAVYYCVRRGHQLVLGYYYYNGLDVWGQGTTVTVSS
VL: DIVLTQSPLSLPVTPGEPASISCRSSQSLLYSNGYNFLDWYLQKPGQSPQLLIYLGSNRASGVPDRFSGSGSGTDFTLKISRLEAEDVGVYYCMQALQTPRTFGQGTKVEIKR
notes: also called mAb 3.1.1; hybridoma 3.1.1 (LN 15848), ATCC PTA-3600
B5: monoclonal antibody 22.1.1 (antibody, human IgG2, kappa, V domains shown)
VH: QVQLVESGGGVVQPGRSLRLSCAASGFTFSRYGMHWVRQAPGKGLEWVAVISSDGGNKYYADSVKGRFTISRDNSKNTLYLQMNSLRAEDTAVYYCTRRGTGKTYYHYCGMDVWGQGTTVTVSS
VL: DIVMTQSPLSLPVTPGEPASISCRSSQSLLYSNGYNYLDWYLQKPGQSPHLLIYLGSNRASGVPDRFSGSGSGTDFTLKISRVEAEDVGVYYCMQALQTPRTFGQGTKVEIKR
notes: Human IgG2 kappa from hybridoma; also called hybridoma 22.1.1 (LN 15875), ATCC PTA-4550
B6: monoclonal antibody 21.2.1 (antibody, human IgG2, kappa, V domains shown)
VH: QVQLVESGGGVVQPGRSLRLSCAASGFTFSSYVMHWVRQAPGKGLEWVAVMSYDGSSKYYANSVKGRFTISRDNSKNTLYLQINSLRAEDTAVYYCARDGGKAVPGPDYWGQGILVTVSS
VL: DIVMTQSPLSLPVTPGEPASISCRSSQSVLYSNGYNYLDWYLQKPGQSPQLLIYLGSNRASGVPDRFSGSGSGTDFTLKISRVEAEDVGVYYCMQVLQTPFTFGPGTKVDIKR
notes: as for B3

Molecular target: T1, TNFR-1/Ig
T1 construct: also called Tumor Necrosis Factor Receptor-1
T1 sequence (P19438 whole entry): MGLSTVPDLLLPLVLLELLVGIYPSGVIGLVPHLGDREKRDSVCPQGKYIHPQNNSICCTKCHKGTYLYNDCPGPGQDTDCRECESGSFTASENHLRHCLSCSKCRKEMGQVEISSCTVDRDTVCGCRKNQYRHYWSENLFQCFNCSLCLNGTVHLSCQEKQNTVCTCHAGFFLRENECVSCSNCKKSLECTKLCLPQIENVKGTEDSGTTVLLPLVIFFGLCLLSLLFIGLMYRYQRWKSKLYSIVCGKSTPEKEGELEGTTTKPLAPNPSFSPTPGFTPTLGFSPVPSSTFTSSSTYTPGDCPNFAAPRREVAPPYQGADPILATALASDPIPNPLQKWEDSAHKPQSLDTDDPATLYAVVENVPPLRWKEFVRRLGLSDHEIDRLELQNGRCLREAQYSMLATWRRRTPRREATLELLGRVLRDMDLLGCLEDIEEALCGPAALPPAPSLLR
Test: ELISA, TNFR-1/Ig coated, antibody 1 µg/ml
Experimental: (§1) We then washed the plate with PBST (PBS+0.1% Tween-20) three times and blocked the plate with PBST+0.5% BSA at 150 µl/well. We incubated the plate at room temperature for 1 hour and then washed with PBST three times. […] We incubated the plate at room temperature for 1 hour then washed with PBST three times. […] We incubated the plate at room temperature for 1 hour and then washed with PBST three times. […] We then read the plate using a SpectraMax™ plate reader.

| Binder | CD40 specific signal over the signal for this molecule |
| --- | --- |
| B1 | ≥ 100 fold |
| B2 | ≥ 100 fold |
| B3 | ≥ 100 fold |
| B4 | ≥ 100 fold |
| B5 | ≥ 100 fold |
| B6 | ≥ 100 fold |

Molecular target: T2, human CD40 on cells (human, UniProt P25942 21-277)
T2 sequence (P25942 21-277): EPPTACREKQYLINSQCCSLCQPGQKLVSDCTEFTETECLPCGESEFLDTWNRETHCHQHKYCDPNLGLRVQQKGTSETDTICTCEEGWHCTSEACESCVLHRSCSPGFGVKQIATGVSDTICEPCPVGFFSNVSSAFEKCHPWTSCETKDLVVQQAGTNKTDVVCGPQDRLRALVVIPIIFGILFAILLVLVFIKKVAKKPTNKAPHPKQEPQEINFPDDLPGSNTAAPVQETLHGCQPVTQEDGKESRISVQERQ
Test: cell-based or functional assay

| Binder | DC B7-1 (CD80), fold increase in median intensity at 1 µg/ml, 72 h | DC B7-2 (CD86), fold increase in median intensity at 1 µg/ml, 72 h | DC CD83, fold increase in median intensity at 1 µg/ml, 72 h | DC ICAM (CD54), fold increase in median intensity at 1 µg/ml, 72 h | DC MHC Class II, fold increase in median intensity at 1 µg/ml, 72 h |
| --- | --- | --- | --- | --- | --- |
| B2 | 1.1 fold | 10.7 fold | 9.2 fold | 1.2 fold | 2.3 fold |
| B4 | 1.8 fold | 23.7 fold | 15.2 fold | 1.5 fold | 4.4 fold |
| B5 | 1.4 fold | 16.3 fold | 12 fold | 1.6 fold | 2.3 fold |
| B6 | 0.9 fold | 7.4 fold | 10.8 fold | 1.5 fold | 1.8 fold |

Molecular target: RANK/Ig
Sequence (Q9Y6Q6 whole entry): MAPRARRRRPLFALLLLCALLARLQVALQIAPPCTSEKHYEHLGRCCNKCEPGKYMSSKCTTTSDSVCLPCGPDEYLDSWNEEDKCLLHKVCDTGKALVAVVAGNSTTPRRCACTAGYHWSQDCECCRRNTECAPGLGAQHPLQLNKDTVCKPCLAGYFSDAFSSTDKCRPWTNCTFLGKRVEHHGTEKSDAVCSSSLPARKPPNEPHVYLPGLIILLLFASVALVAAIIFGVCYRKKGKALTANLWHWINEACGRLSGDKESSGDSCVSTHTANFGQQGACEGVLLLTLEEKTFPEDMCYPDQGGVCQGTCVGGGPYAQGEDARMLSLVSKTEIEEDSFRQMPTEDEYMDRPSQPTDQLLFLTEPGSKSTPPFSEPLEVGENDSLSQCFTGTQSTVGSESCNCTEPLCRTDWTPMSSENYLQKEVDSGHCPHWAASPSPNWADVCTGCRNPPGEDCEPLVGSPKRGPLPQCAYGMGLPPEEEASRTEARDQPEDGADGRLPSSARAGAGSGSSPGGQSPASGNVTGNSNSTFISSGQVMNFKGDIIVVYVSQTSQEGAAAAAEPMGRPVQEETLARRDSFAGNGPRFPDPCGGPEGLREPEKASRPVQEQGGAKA
Test: ELISA, RANK/Ig coated, antibody 1 µg/ml
Experimental: as §1

| Binder | CD40 specific signal over the signal for this molecule |
| --- | --- |
| B1 | ≥ 100 fold |
| B2 | ≥ 100 fold |
| B3 | ≥ 100 fold |
| B4 | ≥ 100 fold |
| B5 | ≥ 100 fold |
| B6 | ≥ 100 fold |

Molecular target: T3, TNFR-2/Ig
T3 construct: also called Tumor Necrosis Factor Receptor-2
T3 sequence (P20333 23-257): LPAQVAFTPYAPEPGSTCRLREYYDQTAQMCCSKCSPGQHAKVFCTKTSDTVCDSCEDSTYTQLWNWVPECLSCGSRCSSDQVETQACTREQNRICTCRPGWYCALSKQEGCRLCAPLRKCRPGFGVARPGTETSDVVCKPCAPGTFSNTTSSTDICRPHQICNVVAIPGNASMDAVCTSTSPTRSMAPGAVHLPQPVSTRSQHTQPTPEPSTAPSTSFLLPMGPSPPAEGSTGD
Test: ELISA, TNFR-2/Ig coated, antibody 1 µg/ml
Experimental: as §1

| Binder | CD40 specific signal over the signal for this molecule |
| --- | --- |
| B1 | ≥ 100 fold |
| B2 | ≥ 100 fold |
| B3 | ≥ 100 fold |
| B4 | ≥ 100 fold |
| B5 | ≥ 100 fold |
| B6 | ≥ 100 fold |

Molecular target: T2, human CD40 on cells
Test: cell-based or functional assay
Remark: another data set of the same source

| Binder | Allo DC/T IFNγ secretion, EC50 |
| --- | --- |
| B2 | 0.2 µg/mL |
| B4 | 0.1 µg/mL |
| B5 | 0.3 µg/mL |
| B6 | 0.03 µg/mL |

Molecular target: T2, human CD40 on cells
Test: cell-based or functional assay
Remark: another data set of the same source

| Binder | DC IL-12p70 secretion with LPS, EC50 |
| --- | --- |
| B2 | 0.1 µg/mL |
| B4 | 0.2 µg/mL |
| B5 | 0.1 µg/mL |
| B6 | 0.03 µg/mL |

Molecular target: T4, human CD40-IgG1 Fc fusion protein (human, UniProt P25942 21-193)
T4 construct: extracellular domain; also called CD40-Ig fusion protein; CD40-IgG fusion protein; not shown: human IgG1 Fc
T4 sequence (P25942 21-193): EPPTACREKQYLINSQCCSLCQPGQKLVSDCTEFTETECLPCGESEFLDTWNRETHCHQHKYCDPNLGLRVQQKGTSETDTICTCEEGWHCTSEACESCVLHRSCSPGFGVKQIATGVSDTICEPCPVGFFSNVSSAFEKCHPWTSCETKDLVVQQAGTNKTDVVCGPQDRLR
Test: SPR BIAcore 3000, CD40-Ig immobilised, antibody injected

| Binder | Kd | koff | kon |
| --- | --- | --- | --- |
| B1 | 4.05 pM | 2.83e-07 s⁻¹ | 83000 M⁻¹ s⁻¹ |
| B3 | 2.23 pM | 4.48e-07 s⁻¹ | 222000 M⁻¹ s⁻¹ |
| B4 | 39.5 pM | 3.31e-05 s⁻¹ | 1.12e+06 M⁻¹ s⁻¹ |
| B5 | 279 pM | 0.000155 s⁻¹ | 955000 M⁻¹ s⁻¹ |

Molecular target: T5, 4-1BB/Ig
T5 construct: also called CD137
Test: ELISA, 4-1BB/Ig coated, antibody 1 µg/ml
Experimental: as §1

| Binder | CD40 specific signal over the signal for this molecule |
| --- | --- |
| B1 | ≥ 100 fold |
| B2 | ≥ 100 fold |
| B3 | ≥ 100 fold |
| B4 | ≥ 100 fold |
| B5 | ≥ 100 fold |
| B6 | ≥ 100 fold |

Molecular target: T6, rat CD40 on blood cells (rat, UniProt A6JXD6 20-289)
T6 construct: also called rat blood
T6 sequence: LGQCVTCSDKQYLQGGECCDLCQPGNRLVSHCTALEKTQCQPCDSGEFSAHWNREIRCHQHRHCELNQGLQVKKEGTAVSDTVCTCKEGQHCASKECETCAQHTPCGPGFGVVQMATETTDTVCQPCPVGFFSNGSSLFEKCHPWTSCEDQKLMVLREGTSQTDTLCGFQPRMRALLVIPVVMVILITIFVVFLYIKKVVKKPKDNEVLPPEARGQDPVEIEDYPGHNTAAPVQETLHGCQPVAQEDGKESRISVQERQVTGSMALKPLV
Test: FACS, whole blood

| Binder | binding result |
| --- | --- |
| B1 | no binding |
| B2 | no binding |
| B3 | no binding |
| B4 | no binding |
| B5 | no binding |
| B6 | no binding |

Molecular target: T7, mouse CD40 on blood cells (mouse, UniProt P27512 20-289)
T7 construct: whole, on cells; also called mouse blood
T7 sequence (P27512 20-289): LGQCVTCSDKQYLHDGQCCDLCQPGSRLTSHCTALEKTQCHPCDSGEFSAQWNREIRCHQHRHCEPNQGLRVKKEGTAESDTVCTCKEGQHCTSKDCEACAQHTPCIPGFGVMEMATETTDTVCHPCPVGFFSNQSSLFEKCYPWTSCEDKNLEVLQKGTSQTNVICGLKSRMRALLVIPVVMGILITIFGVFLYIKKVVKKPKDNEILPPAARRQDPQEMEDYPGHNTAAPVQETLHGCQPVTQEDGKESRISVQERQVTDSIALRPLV
Test: FACS, whole blood

| Binder | binding result |
| --- | --- |
| B1 | no binding |
| B2 | no binding |
| B3 | no binding |
| B4 | no binding |
| B5 | no binding |
| B6 | no binding |

Molecular target: T8, dog CD40 on blood cells (dog, UniProt Q7YRL5 21-274)
T8 construct: whole, on cells; also called dog blood
T8 sequence (looked up): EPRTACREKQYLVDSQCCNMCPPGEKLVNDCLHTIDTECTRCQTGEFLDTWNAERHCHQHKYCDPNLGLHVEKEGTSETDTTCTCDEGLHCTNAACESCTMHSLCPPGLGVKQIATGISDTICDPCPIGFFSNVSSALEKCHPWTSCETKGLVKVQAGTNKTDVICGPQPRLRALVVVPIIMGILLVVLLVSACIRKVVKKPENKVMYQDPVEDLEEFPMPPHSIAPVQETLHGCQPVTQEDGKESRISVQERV
Test: FACS, whole blood

| Binder | binding result |
| --- | --- |
| B1 | no binding |
| B2 | no binding |
| B3 | no binding |
| B4 | no binding |
| B5 | no binding |
| B6 | no binding |

Molecular target: T2, human CD40 on cells
Test: cell-based or functional assay
Remark: another data set of the same source

| Binder | B cell B7-1 (CD80), fold increase in median intensity at 1 µg/ml | B cell B7-2 (CD86), fold increase in median intensity at 1 µg/ml | B cell CD23, fold increase in median intensity at 1 µg/ml | B cell ICAM (CD54), fold increase in median intensity at 1 µg/ml | B cell MHC Class II, fold increase in median intensity at 1 µg/ml |
| --- | --- | --- | --- | --- | --- |
| B2 | 1.4 fold | 1 fold | 1.1 fold | 1.1 fold | 1.4 fold |
| B4 | 1.7 fold | 1.2 fold | 5.6 fold | 1.3 fold | 3.2 fold |
| B5 | 1.2 fold | 1 fold | 1.3 fold | 1.1 fold | 1.4 fold |
| B6 | 0.9 fold | 1 fold | 1 fold | 1.3 fold | 1.2 fold |
